{"source": "patent US20180147232", "proteins": {"B1": {"name": "recombinant His-SGK1 (Δ60) (protein)", "chain": "ISQPQEPELMNANPSPPPSPSQQINLGPSSNPHAKPSDFHFLKVIGKGSFGKVLLARHKAEEVFYAVKVLQKKAILKKKEEKHIMSERNVLLKNVKHPFLVGLHFSFQTADKLYFVLDYINGGELFYHLQRERCFLEPRARFYAAEIASALGYLHSLNIVYRDLKPENILLDSQGHIVLTDFGLCKENIEHNSTTSTFCGTPEYLAPEVLHKQPYDRTVDWWCLGAVLYEMLYGLPPFYSRNTAEMYDNILNKPLQLKPNITNSARHLLEGLLQKDRTKRLGAKDDFMEIKSHVFFSLINWDDLINKKITPPFNPNVSGPNDLRHFDPEFTEEPVPNSIGKSPDSVLVTASVKEAAEAFLGFDYAPPTDSFL"}}, "data": [{"protein": "B1", "values": [{"measurement": "phosphorylation of S939, S981, T993, S1130, S1132, T1462 and S1798 of TSC2 by mass spectrometry after the in vitro kinase assay", "setting": "Flag-TSC2, P49815", "result": "we found increased phosphorylation in all these sites, except at T993"}, {"measurement": "phosphorylation of the RXRXX(S/T) sites of TSC2, in vitro kinase assay", "setting": "Flag-TSC2, P49815", "result": "The addition of recombinant SGK1 kinase increased the phosphorylation of the RXRXX(S/T) (SEQ ID NO: 1) sites of TSC2 independent of the AKT activity"}, {"measurement": "phosphorylation of TSC2, in vitro kinase assay", "setting": "Flag-TSC2 6A, P49815", "result": "Mutation of these six sites into the non-phosphorylatable amino acid alanine (TSC2 6A) completely abrogated the ability of SGK1 to phosphorylate TSC2 in vitro"}]}]}
